Experimental data as given in patent US20230357348A1 (AstraZeneca / MedImmune, published 2023).
Starred links: 1 amine or outer side, 2 acyl side, 3 side chain; linkers in the order of their positions; H or OH if unused. Non-standard residues stand in square brackets, D forms with d. Groups on a side chain read outwards from the residue. No end group written: not given here. *: point of attachment. C20 diacid = O=C(O)CCCCCCCCCCCCCCCCCCC(=O)*; C18 diacid = O=C(O)CCCCCCCCCCCCCCCCC(=O)*; γGlu = O=C(O)[C@H](CCC(=O)[*:2])N[*:1]; αMeF = C[C@](N)(Cc1ccccc1)C(=O)O; AEEA = NCCOCCOCC(=O)O; Aib = CC(C)(N)C(=O)O

B1: Peptide 449 (peptide)
peptide: H[Aib]QGTFTSDVSK[αMeF]LDTK([AEEA-AEEA-γGlu-γGlu-C20 diacid])RARDFVQWLLE[Aib]G-OH
modifications: N-terminus assumed
SMILES: CC(C)C[C@H](NC(=O)[C@H](Cc1c[nH]c2ccccc12)NC(=O)[C@H](CCC(N)=O)NC(=O)[C@@H](NC(=O)[C@H](Cc1ccccc1)NC(=O)[C@H](CC(=O)O)NC(=O)[C@H](CCCNC(=N)N)NC(=O)[C@H](C)NC(=O)[C@H](CCCNC(=N)N)NC(=O)[C@H](CCCCNC(=O)COCCOCCNC(=O)COCCOCCNC(=O)CC[C@H](NC(=O)CC[C@H](NC(=O)CCCCCCCCCCCCCCCCCCC(=O)O)C(=O)O)C(=O)O)NC(=O)[C@@H](NC(=O)[C@H](CC(=O)O)NC(=O)[C@H](CC(C)C)NC(=O)[C@](C)(Cc1ccccc1)NC(=O)[C@H](CCCCN)NC(=O)[C@H](CO)NC(=O)[C@@H](NC(=O)[C@H](CC(=O)O)NC(=O)[C@H](CO)NC(=O)[C@@H](NC(=O)[C@H](Cc1ccccc1)NC(=O)[C@@H](NC(=O)CNC(=O)[C@H](CCC(N)=O)NC(=O)C(C)(C)NC(=O)[C@@H](N)Cc1c[nH]cn1)[C@@H](C)O)[C@@H](C)O)C(C)C)[C@@H](C)O)C(C)C)C(=O)N[C@@H](CC(C)C)C(=O)N[C@@H](CCC(=O)O)C(=O)NC(C)(C)C(=O)NCC(=O)O
B2: Peptide 443 (peptide)
peptide: H[Aib]QGTFTSDVSK[αMeF]LDKK([AEEA-AEEA-γGlu-C18 diacid])RARDFVRWLL[Aib]E-NH2
modifications: N-terminus assumed
SMILES: CC(C)C[C@H](NC(=O)[C@H](Cc1c[nH]c2ccccc12)NC(=O)[C@H](CCCNC(=N)N)NC(=O)[C@@H](NC(=O)[C@H](Cc1ccccc1)NC(=O)[C@H](CC(=O)O)NC(=O)[C@H](CCCNC(=N)N)NC(=O)[C@H](C)NC(=O)[C@H](CCCNC(=N)N)NC(=O)[C@H](CCCCNC(=O)COCCOCCNC(=O)COCCOCCNC(=O)CC[C@H](NC(=O)CCCCCCCCCCCCCCCCC(=O)O)C(=O)O)NC(=O)[C@H](CCCCN)NC(=O)[C@H](CC(=O)O)NC(=O)[C@H](CC(C)C)NC(=O)[C@](C)(Cc1ccccc1)NC(=O)[C@H](CCCCN)NC(=O)[C@H](CO)NC(=O)[C@@H](NC(=O)[C@H](CC(=O)O)NC(=O)[C@H](CO)NC(=O)[C@@H](NC(=O)[C@H](Cc1ccccc1)NC(=O)[C@@H](NC(=O)CNC(=O)[C@H](CCC(N)=O)NC(=O)C(C)(C)NC(=O)[C@@H](N)Cc1c[nH]cn1)[C@@H](C)O)[C@@H](C)O)C(C)C)C(C)C)C(=O)N[C@@H](CC(C)C)C(=O)NC(C)(C)C(=O)N[C@@H](CCC(=O)O)C(N)=O
B3: Peptide 444 (peptide)
peptide: H[Aib]QGTFTSDVSK[αMeF]LETKRARDFVQWLLE[Aib]G-OH
modifications: not fully specified (residue 17)
B4: Peptide 442 (peptide)
peptide: H[Aib]QGTFTSDVSK[αMeF]LDKK([AEEA-AEEA-γGlu-C18 diacid])RAQDFVRWLLE[Aib]G-NH2
modifications: N-terminus assumed
SMILES: CC(C)C[C@H](NC(=O)[C@H](Cc1c[nH]c2ccccc12)NC(=O)[C@H](CCCNC(=N)N)NC(=O)[C@@H](NC(=O)[C@H](Cc1ccccc1)NC(=O)[C@H](CC(=O)O)NC(=O)[C@H](CCC(N)=O)NC(=O)[C@H](C)NC(=O)[C@H](CCCNC(=N)N)NC(=O)[C@H](CCCCNC(=O)COCCOCCNC(=O)COCCOCCNC(=O)CC[C@H](NC(=O)CCCCCCCCCCCCCCCCC(=O)O)C(=O)O)NC(=O)[C@H](CCCCN)NC(=O)[C@H](CC(=O)O)NC(=O)[C@H](CC(C)C)NC(=O)[C@](C)(Cc1ccccc1)NC(=O)[C@H](CCCCN)NC(=O)[C@H](CO)NC(=O)[C@@H](NC(=O)[C@H](CC(=O)O)NC(=O)[C@H](CO)NC(=O)[C@@H](NC(=O)[C@H](Cc1ccccc1)NC(=O)[C@@H](NC(=O)CNC(=O)[C@H](CCC(N)=O)NC(=O)C(C)(C)NC(=O)[C@@H](N)Cc1c[nH]cn1)[C@@H](C)O)[C@@H](C)O)C(C)C)C(C)C)C(=O)N[C@@H](CC(C)C)C(=O)N[C@@H](CCC(=O)O)C(=O)NC(C)(C)C(=O)NCC(N)=O
B5: Peptide 448 (peptide)
peptide: H[Aib]QGTFTSDVSK[αMeF]LDKK([AEEA-AEEA-γGlu-γGlu-C18 diacid])RARDFVRWLL[Aib]E-OH
modifications: N-terminus assumed
SMILES: CC(C)C[C@H](NC(=O)[C@H](Cc1c[nH]c2ccccc12)NC(=O)[C@H](CCCNC(=N)N)NC(=O)[C@@H](NC(=O)[C@H](Cc1ccccc1)NC(=O)[C@H](CC(=O)O)NC(=O)[C@H](CCCNC(=N)N)NC(=O)[C@H](C)NC(=O)[C@H](CCCNC(=N)N)NC(=O)[C@H](CCCCNC(=O)COCCOCCNC(=O)COCCOCCNC(=O)CC[C@H](NC(=O)CC[C@H](NC(=O)CCCCCCCCCCCCCCCCC(=O)O)C(=O)O)C(=O)O)NC(=O)[C@H](CCCCN)NC(=O)[C@H](CC(=O)O)NC(=O)[C@H](CC(C)C)NC(=O)[C@](C)(Cc1ccccc1)NC(=O)[C@H](CCCCN)NC(=O)[C@H](CO)NC(=O)[C@@H](NC(=O)[C@H](CC(=O)O)NC(=O)[C@H](CO)NC(=O)[C@@H](NC(=O)[C@H](Cc1ccccc1)NC(=O)[C@@H](NC(=O)CNC(=O)[C@H](CCC(N)=O)NC(=O)C(C)(C)NC(=O)[C@@H](N)Cc1c[nH]cn1)[C@@H](C)O)[C@@H](C)O)C(C)C)C(C)C)C(=O)N[C@@H](CC(C)C)C(=O)NC(C)(C)C(=O)N[C@@H](CCC(=O)O)C(=O)O
B6: Peptide 445 (peptide)
peptide: H[Aib]QGTFTSDVSK[αMeF]LETK([AEEA-AEEA-γGlu-C18 diacid])RARDFVQWLLE[Aib]G-OH
B7: Peptide 441 (peptide)
peptide: H[Aib]QGTFTSDVSK[αMeF]LDKK([AEEA-AEEA-γGlu-C20 diacid])RAQDFVRWLL[Aib]E-NH2
modifications: N-terminus assumed
SMILES: CC(C)C[C@H](NC(=O)[C@H](Cc1c[nH]c2ccccc12)NC(=O)[C@H](CCCNC(=N)N)NC(=O)[C@@H](NC(=O)[C@H](Cc1ccccc1)NC(=O)[C@H](CC(=O)O)NC(=O)[C@H](CCC(N)=O)NC(=O)[C@H](C)NC(=O)[C@H](CCCNC(=N)N)NC(=O)[C@H](CCCCNC(=O)COCCOCCNC(=O)COCCOCCNC(=O)CC[C@H](NC(=O)CCCCCCCCCCCCCCCCCCC(=O)O)C(=O)O)NC(=O)[C@H](CCCCN)NC(=O)[C@H](CC(=O)O)NC(=O)[C@H](CC(C)C)NC(=O)[C@](C)(Cc1ccccc1)NC(=O)[C@H](CCCCN)NC(=O)[C@H](CO)NC(=O)[C@@H](NC(=O)[C@H](CC(=O)O)NC(=O)[C@H](CO)NC(=O)[C@@H](NC(=O)[C@H](Cc1ccccc1)NC(=O)[C@@H](NC(=O)CNC(=O)[C@H](CCC(N)=O)NC(=O)C(C)(C)NC(=O)[C@@H](N)Cc1c[nH]cn1)[C@@H](C)O)[C@@H](C)O)C(C)C)C(C)C)C(=O)N[C@@H](CC(C)C)C(=O)NC(C)(C)C(=O)N[C@@H](CCC(=O)O)C(N)=O
B8: Peptide 447 (peptide)
peptide: H[Aib]QGTFTSDVSK[αMeF]LDRK([AEEA-AEEA-γGlu-γGlu-C20 diacid])RAQDFVRWLV[Aib]E-NH2
modifications: N-terminus assumed
SMILES: CC(C)C[C@H](NC(=O)[C@H](Cc1c[nH]c2ccccc12)NC(=O)[C@H](CCCNC(=N)N)NC(=O)[C@@H](NC(=O)[C@H](Cc1ccccc1)NC(=O)[C@H](CC(=O)O)NC(=O)[C@H](CCC(N)=O)NC(=O)[C@H](C)NC(=O)[C@H](CCCNC(=N)N)NC(=O)[C@H](CCCCNC(=O)COCCOCCNC(=O)COCCOCCNC(=O)CC[C@H](NC(=O)CC[C@H](NC(=O)CCCCCCCCCCCCCCCCCCC(=O)O)C(=O)O)C(=O)O)NC(=O)[C@H](CCCNC(=N)N)NC(=O)[C@H](CC(=O)O)NC(=O)[C@H](CC(C)C)NC(=O)[C@](C)(Cc1ccccc1)NC(=O)[C@H](CCCCN)NC(=O)[C@H](CO)NC(=O)[C@@H](NC(=O)[C@H](CC(=O)O)NC(=O)[C@H](CO)NC(=O)[C@@H](NC(=O)[C@H](Cc1ccccc1)NC(=O)[C@@H](NC(=O)CNC(=O)[C@H](CCC(N)=O)NC(=O)C(C)(C)NC(=O)[C@@H](N)Cc1c[nH]cn1)[C@@H](C)O)[C@@H](C)O)C(C)C)C(C)C)C(=O)N[C@H](C(=O)NC(C)(C)C(=O)N[C@@H](CCC(=O)O)C(N)=O)C(C)C
B9: Peptide 446 (peptide)
peptide: H[Aib]QGTFTSDVSK[αMeF]LDRK([AEEA-AEEA-γGlu-γGlu-C18 diacid])RAQDFVRWLV[Aib]E-NH2
modifications: N-terminus assumed
SMILES: CC(C)C[C@H](NC(=O)[C@H](Cc1c[nH]c2ccccc12)NC(=O)[C@H](CCCNC(=N)N)NC(=O)[C@@H](NC(=O)[C@H](Cc1ccccc1)NC(=O)[C@H](CC(=O)O)NC(=O)[C@H](CCC(N)=O)NC(=O)[C@H](C)NC(=O)[C@H](CCCNC(=N)N)NC(=O)[C@H](CCCCNC(=O)COCCOCCNC(=O)COCCOCCNC(=O)CC[C@H](NC(=O)CC[C@H](NC(=O)CCCCCCCCCCCCCCCCC(=O)O)C(=O)O)C(=O)O)NC(=O)[C@H](CCCNC(=N)N)NC(=O)[C@H](CC(=O)O)NC(=O)[C@H](CC(C)C)NC(=O)[C@](C)(Cc1ccccc1)NC(=O)[C@H](CCCCN)NC(=O)[C@H](CO)NC(=O)[C@@H](NC(=O)[C@H](CC(=O)O)NC(=O)[C@H](CO)NC(=O)[C@@H](NC(=O)[C@H](Cc1ccccc1)NC(=O)[C@@H](NC(=O)CNC(=O)[C@H](CCC(N)=O)NC(=O)C(C)(C)NC(=O)[C@@H](N)Cc1c[nH]cn1)[C@@H](C)O)[C@@H](C)O)C(C)C)C(C)C)C(=O)N[C@H](C(=O)NC(C)(C)C(=O)N[C@@H](CCC(=O)O)C(N)=O)C(C)C

Columns and labels:
[1] = biological target: human glucagon receptor (hGCGR) (human, UniProt P47871 26-477); assay: cell-based or functional assay
Chain of human glucagon receptor (hGCGR) (P47871 26-477): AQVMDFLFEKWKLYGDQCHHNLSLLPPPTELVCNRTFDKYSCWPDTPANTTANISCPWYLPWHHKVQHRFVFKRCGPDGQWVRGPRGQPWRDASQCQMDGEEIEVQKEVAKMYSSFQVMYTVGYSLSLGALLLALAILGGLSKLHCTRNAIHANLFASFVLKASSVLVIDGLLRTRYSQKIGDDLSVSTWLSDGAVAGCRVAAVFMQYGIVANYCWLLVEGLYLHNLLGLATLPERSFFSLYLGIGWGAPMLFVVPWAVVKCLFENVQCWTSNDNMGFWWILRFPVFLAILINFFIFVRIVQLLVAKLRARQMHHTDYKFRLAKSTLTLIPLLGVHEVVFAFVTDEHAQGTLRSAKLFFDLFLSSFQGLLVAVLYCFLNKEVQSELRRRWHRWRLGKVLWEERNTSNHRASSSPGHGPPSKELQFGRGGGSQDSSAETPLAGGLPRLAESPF

[2] = biological target: human GLP-1 receptor (hGLP-1R) (human, UniProt P43220 24-463); assay: cell-based or functional assay

Binder	hGluc-R EC50 (pM) [1]	hGLP-1R EC50 (pM) [2]
B1	242 pM	207 pM
B2	22.4 pM	20.6 pM
B3	1760 pM	247 pM
B4	35.8 pM	19.1 pM
B5	29 pM	53.1 pM
B6	684 pM	33 pM
B7	72.8 pM	62.7 pM
B8	667 pM	170 pM
B9	366 pM	32.9 pM
